This passage reports stoichiometry N results from article doi:10.1101/2024.11.27.625426 (bioRxiv, 2024).

The target in the experiment is N1-CA09-sNAp, stabilized neuraminidase protein of A/California/04/2009 (H1N1) (influenza A virus A/California/04/2009 (H1N1)) (UniProt C3W5S3). Kind of experiment: cryo-EM structure.

The substance “N1-CA09-sNAp, stabilized neuraminidase protein of A/California/04/2009 (H1N1) (from UniProt C3W5S3 1-469) (enzyme)” had a stoichiometry N of 4 protomers.
